Measurements as given in article PMC3568127 (2013).

B1: His6-tagged VEGF-A165-HBD (heparin binding domain of human vascular endothelial growth factor VEGF-A165) (domain or fragment)
chain: PCGPCSERRKHLFVQDPQTCKCSCKNTDSRCKARQLELNERTCRCDKPRR
B2: VEGF-A165 (R&D Systems), unlabelled (ligand)
chain: APMAEGGGQNHHEVVKFMDVYQRSYCHPIETLVDIFQEYPDEIEYIFKPSCVPLMRCGGCCNDEGLECVPTEESNITMQIMRIKPHQGQHIGEMSFLQHNKCECRPKKDRARQENPCGPCSERRKHLFVQDPQTCKCSCKNTDSRCKARQLELNERTCRCDKPRR
modifications: Disulfide-linked homodimer. Mature VEGF165 (equals P15692-4 residues 27-191, 165 aa) is built from the 395-aa displayed form by removing exon 6a, with K to N at the splice junction. Limits follow the standard mature VEGF165; the paper does not print them.
B3: VEGF-A165-HBD with the His6-tag removed (domain or fragment)
chain: B1 chain

Experiments:
[1] = target: T1, NRP1 (neuropilin 1) expressed from an adenovirus on DU145 cells (UniProt O14786 22-923); experiment: competition with bt-VEGF-A165 on DU145 cells, +BSA
[2] = target: T1, NRP1 (neuropilin 1) expressed from an …; experiment: competition with bt-VEGF-A165 on DU145 cells

T1 sequence (O14786 22-923): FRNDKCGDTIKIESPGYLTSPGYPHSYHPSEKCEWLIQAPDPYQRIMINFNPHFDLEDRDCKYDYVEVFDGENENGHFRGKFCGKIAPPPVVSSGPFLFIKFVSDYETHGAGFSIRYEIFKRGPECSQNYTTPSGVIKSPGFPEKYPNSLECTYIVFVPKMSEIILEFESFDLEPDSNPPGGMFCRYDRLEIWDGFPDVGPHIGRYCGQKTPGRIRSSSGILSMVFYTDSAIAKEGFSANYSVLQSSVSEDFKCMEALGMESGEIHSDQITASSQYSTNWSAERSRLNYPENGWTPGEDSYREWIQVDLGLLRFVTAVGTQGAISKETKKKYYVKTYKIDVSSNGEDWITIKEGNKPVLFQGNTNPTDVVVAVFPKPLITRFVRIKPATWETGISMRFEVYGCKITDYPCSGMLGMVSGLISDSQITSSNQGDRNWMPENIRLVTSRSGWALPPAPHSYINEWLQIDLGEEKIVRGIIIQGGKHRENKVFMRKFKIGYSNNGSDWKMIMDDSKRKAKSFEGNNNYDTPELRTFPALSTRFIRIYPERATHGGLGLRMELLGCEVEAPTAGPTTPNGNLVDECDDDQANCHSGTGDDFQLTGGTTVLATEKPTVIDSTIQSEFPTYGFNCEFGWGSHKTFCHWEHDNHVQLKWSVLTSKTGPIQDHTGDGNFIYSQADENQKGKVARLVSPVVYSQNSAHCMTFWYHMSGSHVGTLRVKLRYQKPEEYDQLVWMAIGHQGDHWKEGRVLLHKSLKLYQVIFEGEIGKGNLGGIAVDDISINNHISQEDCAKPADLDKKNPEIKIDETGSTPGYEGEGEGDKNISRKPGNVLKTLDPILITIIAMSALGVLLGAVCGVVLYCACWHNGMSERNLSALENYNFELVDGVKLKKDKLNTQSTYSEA

Binder | IC50 [1] | IC50 [2]
B1 | 152 nM | 161 nM
B2 |  | 0.8 nM
B3 | 229 nM | 107 nM
